From patent publication US20020045215A1

Molecular target: Epidermal growth factor receptor of HCT-116 cells (human (HCT-116, a human colon cancer cell line)) (UniProt P00533)
Test: cell-based or functional assay

ERRP fusion protein bound to MBP (from UniProt Q01279 25-448)
EGF-R Tyr-K activity in HCT-116 cells (reduction against cells exposed to MBP alone or control cells): 80 to 90%
